{
  "source": "patent US7569660",
  "about": "(UNIVERSITY OF CHICAGO, dated 2009)",
  "proteins": {"B1": {"name": "NM R2E2 repeat expansion variant (other)", "chain": "MSDSNQGNNQQNYQQYSQNGNQQQGNNRYQGYQAYNAQAQPAGGYYQNYQGYSGYQQGGYQQYNPQGGYQQYNPQGGYQQYNPDAGYQQQYNPQGGYQQYNPQGGYQQQFNPQGGRGNYKNFNYNNNLQGYQAGFQPQSQGMSLNDFQKQQKQAAPKPKKTLKLVSSSGIKLANATKKVGTKPAESDKKEEEKSAETKEPTKEPTKVEEPVKKEEKPVQTEEKTEEKSELPKVEDLKISESTHNTNNANVTSADALIKEQEEEVDDEVVND"}},
  "target": "the molecule itself",
  "data": [
    {"protein": "B1", "values": [
      {"measurement": "rate of conversion to a β-sheet rich structure relative to wild-type NM", "result": "~2", "unit": "fold"}
    ]}
  ]
}
